Test results as given in the supplement of paper PMC12764529.
± gives the half width of the 95% confidence interval.

Tests used:
[1] = folding stability dG unfold from chymotrypsin proteolysis; higher = more stable
Method in brief: (§1)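 How resistant each design was to proteolysis was captured as K50, inferred by Bayesian fitting of sequencing counts. Unfolding free energy was then derived relative to a sequence-predicted unfolded-state K50 and a shared folded-state K50, per protease or combined. Digestion used trypsin and chymotrypsin at 11 threefold-diluted concentrations plus a no-protease condition, on mini-proteins under 80 residues without cysteine in a PA-tagged cDNA display construct. Designs were kept only when AlphaFold2 dimer inter-PAE was above 15.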

[2] = folding stability dG unfold (combined trypsin and chymotrypsin); higher = more stable
Method in brief: as §1

[3] = folding stability dG unfold from trypsin proteolysis; higher = more stable
Method in brief: as §1

## SAGGEKTTLTLTLTLTLPPVTTVTYDPETGELRVETRTTTLTLTITVTADSPEEAERALRELLKKLGLSAGG [r13_35_TrROS_Hall]
[1]
  folding stability dG unfold: 6.41 ± 0.27 kcal/mol
[2]
  folding stability dG unfold: > 6 kcal/mol
[3]
  folding stability dG unfold: 4.4 ± 0.17 kcal/mol

## SAGGEKTYMVRIDIEYRTPGKPREIDLMVPIKSPEQAREQLDKIADFLAKEHPDNWRIKVEIYPMEDSAGGS [r16_475_TrROS]
[1]
  folding stability dG unfold: 2.49 ± 0.068 kcal/mol
[2]
  folding stability dG unfold: 2.16 ± 0.29 kcal/mol
[3]
  folding stability dG unfold: 1.28 ± 0.18 kcal/mol

## SAGGELIEKAIEEALENGEEVEIEVVLRDENGELYRIRIRVRRERLPDGEVKTEIEIEIERFPLPEESAGGS [r16_323_TrROS_Hall]
[1]
  folding stability dG unfold: 4.66 ± 0.11 kcal/mol
[2]
  folding stability dG unfold: 4.6 ± 0.12 kcal/mol
[3]
  folding stability dG unfold: 4.28 ± 0.2 kcal/mol

## SAGGELVLLSESESVFTSPDGSRTVVRTLLTERPGDLLVEITTTTTIEPESGAVTTTTTTRVLPRRESAGGS [r8_264_JUSTAS]
[1]
  folding stability dG unfold: 3.021 ± 0.013 kcal/mol
[2]
  folding stability dG unfold: 2.8 ± 0.038 kcal/mol
[3]
  folding stability dG unfold: 2.33 ± 0.043 kcal/mol

## SAGGEMTAEERARRLAERLAEELERRTGRKVEVVSVEVEYDPETDEVTVRIEIRLEDGSTLTIELRLSAGGS [r8_372_TrROS_Hall]
[1]
  folding stability dG unfold: 3.41 ± 0.11 kcal/mol
[2]
  folding stability dG unfold: 4.33 ± 0.27 kcal/mol
[3]
  folding stability dG unfold: 4.86 ± 0.26 kcal/mol

## SAGGESTPEIEPVATLELPTPDGRPITVEVYRLKDGTVRVVVRNPNPPETITLTIPAKEGETIPIFLSAGGS [r16_566_TrMRF]
[1]
  folding stability dG unfold: 2.2 ± 0.045 kcal/mol
[2]
  folding stability dG unfold: 2.11 ± 0.067 kcal/mol
[3]
  folding stability dG unfold: 1.9 ± 0.04 kcal/mol

## SAGGETKTITIKVDGKLVTITVKKNKNGEELVTVKVYENGKLVEEVTMSKDELEELAKKLGLSVEELKSAGG [r13_108_TrROS_Hall]
[1]
  folding stability dG unfold: 3.81 ± 0.051 kcal/mol
[2]
  folding stability dG unfold: 3.62 ± 0.1 kcal/mol
[3]
  folding stability dG unfold: 3.27 ± 0.091 kcal/mol

## SAGGETVEIEVEMSPEEVREAIKKAAEALDAEVVEVKYDKETKKVTITVKKGATEEELRKALEEALKSAGGS [r8_338_TrROS_Hall]
[1]
  folding stability dG unfold: 1.78 ± 0.095 kcal/mol
[2]
  folding stability dG unfold: 2.19 ± 0.095 kcal/mol
[3]
  folding stability dG unfold: 2.47 ± 0.12 kcal/mol

## SAGGETVTITIKVKGKEITVTFNKDTGKVTITDKDTGKTVTITLPAGEEPTLEELLEALKKLGFEIEPSAGG [r13_687_TrROS_Hall]
[1]
  folding stability dG unfold: 4.18 ± 0.095 kcal/mol
[2]
  folding stability dG unfold: 4.32 ± 0.099 kcal/mol
[3]
  folding stability dG unfold: 4.11 ± 0.18 kcal/mol

## SAGGEVIELKIKFKTPEQREKLKEIAKKLNAEVVEEKDGEVIIRFKTPEQAERALKEAEKLGAEVELSAGGS [r16_88_TrROS_Hall]
[1]
  folding stability dG unfold: 4.47 ± 0.097 kcal/mol
[2]
  folding stability dG unfold: 4.48 ± 0.17 kcal/mol
[3]
  folding stability dG unfold: 4.29 ± 0.26 kcal/mol

## SAGGEVKIEVVEKDGELYIVVTVRAPSVEELKKALEELGLEVEVVKIEEVKGEDGETYVVVVVKIKPSAGGS [r16_699_TrROS_Hall]
[1]
  folding stability dG unfold: 3.68 ± 0.065 kcal/mol
[2]
  folding stability dG unfold: 3.24 ± 0.07 kcal/mol
[3]
  folding stability dG unfold: 2.41 ± 0.086 kcal/mol

## SAGGEVKPGEEVEVEVLVLVRGEDGELYLVRVKMRFRVKEDGTVEMEVEVEVVRVPLSEEELKALLEASAGG [r13_544_TrROS_Hall]
[1]
  folding stability dG unfold: 5.99 ± 0.26 kcal/mol
[2]
  folding stability dG unfold: > 6 kcal/mol
[3]
  folding stability dG unfold: 4.43 ± 0.14 kcal/mol

## SAGGEVKTLEVTLEVNGKKVRVRVELTKDGTLKVTVTFEDGTKVELEIKLPKVKVKEVKFYSLEELKSAGGS [r16_48_TrROS_Hall]
[1]
  folding stability dG unfold: 1.78 ± 0.05 kcal/mol
[2]
  folding stability dG unfold: 2.06 ± 0.1 kcal/mol
[3]
  folding stability dG unfold: 2.22 ± 0.071 kcal/mol

## SAGGEVKVEIEVELNEDGTLRVRARVEVRVDGELVTVEVEIEVRLEPAPPPAPPPVLVVDPETGEILSAGGS [r8_269_TrROS_Hall]
[1]
  folding stability dG unfold: 1.94 ± 0.11 kcal/mol
[2]
  folding stability dG unfold: 2.7 ± 0.21 kcal/mol
[3]
  folding stability dG unfold: 3.29 ± 0.2 kcal/mol

## SAGGEVKVEIKYDKKKNKIEIKVIVRDKETGEWKELSAEEIAKLLKKKLKLPNVKEIKVEVYEPGEKPSAGG [r13_327_TrROS_Hall]
[1]
  folding stability dG unfold: 1.98 ± 0.12 kcal/mol
[2]
  folding stability dG unfold: 1.97 ± 0.18 kcal/mol
[3]
  folding stability dG unfold: 1.31 ± 0.11 kcal/mol

## SAGGEVLVIELSLEELKNLKPNQTVKIKLPDGSELEVRVEEVDGRLYLFVRNKENPEEVELIEEITIESAGG [r13_745_TrROS_Hall]
[1]
  folding stability dG unfold: 3.48 ± 0.049 kcal/mol
[2]
  folding stability dG unfold: 3.3 ± 0.065 kcal/mol
[3]
  folding stability dG unfold: 2.79 ± 0.062 kcal/mol

## SAGGEYTVVSVLEERKDPATGKTVTLELLKDPNSNVLYRRVTTTDPANPDVVTTTLYDAAGNKVSTVSSAGG [r13_658_JUSTAS]
[1]
  folding stability dG unfold: 2.62 ± 0.055 kcal/mol
[2]
  folding stability dG unfold: 2.48 ± 0.095 kcal/mol
[3]
  folding stability dG unfold: 2.17 ± 0.046 kcal/mol

## SAGGFIVVPIKAKSLEEALEKAREIAAALGIPGTLEDPRVDLDDFLKNYKPDTEVRVYVRHPDGVIDELSAG [r5_503_TrMRF]
[1]
  folding stability dG unfold: 0.223 ± 0.21 kcal/mol
[2]
  folding stability dG unfold: 0.878 ± 0.11 kcal/mol
[3]
  folding stability dG unfold: 1.23 ± 0.033 kcal/mol

## SAGGFKIKNIDVERNPDNGWRTITVEFPGNGWKFQIQVPPDGGVKYEWYNNGEPQTYTIPADDLKDLSAGGS [r8_238_TrROS]
[1]
  folding stability dG unfold: 1.34 ± 0.082 kcal/mol
[2]
  folding stability dG unfold: 1.2 ± 0.08 kcal/mol
[3]
  folding stability dG unfold: 1 ± 0.06 kcal/mol

## SAGGFWLKNPNGHYIQVNVEVEWEPRRDPDNGKPTWEPKIEINVEVYDPNGEKRPIPEDQAKDLLKKLSAGG [r13_809_TrROS]
[1]
  folding stability dG unfold: 1.64 ± 0.082 kcal/mol
[2]
  folding stability dG unfold: 1.31 ± 0.11 kcal/mol
[3]
  folding stability dG unfold: 0.604 ± 0.073 kcal/mol

## SAGGGAAEEAARALIDEAKAALGLSEISEVVLTREGDGVTMTVRFPGKGLVITIDLAAGVVTAVEDVSAGGS [r16_171_JUSTAS]
[1]
  folding stability dG unfold: 2.018 ± 0.0088 kcal/mol
[2]
  folding stability dG unfold: 2.11 ± 0.035 kcal/mol
[3]
  folding stability dG unfold: 2.18 ± 0.034 kcal/mol

## SAGGGANIEGVEIYRIPDLDKYLVVVPSPAPEGAEITITVRLPNGPFTKTFVAKYRPLPGNRHVFVGSAGGS [r8_195_TrMRF]
[1]
  folding stability dG unfold: 0.789 ± 0.15 kcal/mol
[2]
  folding stability dG unfold: 1.03 ± 0.12 kcal/mol
[3]
  folding stability dG unfold: 1.23 ± 0.056 kcal/mol

## SAGGGEIKIEIYRHPDTIMIRVKWDNPQQLKEEIIELFREENGFKPKEVSVQYNPNGYLYIMFEFKPKSAGG [r13_158_TrROS]
[1]
  folding stability dG unfold: 4.12 ± 0.086 kcal/mol
[2]
  folding stability dG unfold: 3.64 ± 0.21 kcal/mol
[3]
  folding stability dG unfold: 2.59 ± 0.12 kcal/mol

## SAGGGELYIMFKFDFTFWINNGTISFDMYIMIRIPIPPPPVPIELEDDPDGSYKYEYPNGKEHEVPNSAGGS [r16_136_TrROS]
[1]
  folding stability dG unfold: 3.16 ± 0.079 kcal/mol
[2]
  folding stability dG unfold: 3.23 ± 0.22 kcal/mol
[3]
  folding stability dG unfold: 3.15 ± 0.1 kcal/mol

## SAGGGFEEIIEKAIAKAKELFPDTGAVVPITETVYDPVKKKPIVIEVLVEFDKDGKIKKVEILKISELSAGG [r13_770_TrMRF]
[1]
  folding stability dG unfold: 1.34 ± 0.044 kcal/mol
[2]
  folding stability dG unfold: 2.09 ± 0.11 kcal/mol
[3]
  folding stability dG unfold: 2.86 ± 0.2 kcal/mol

## SAGGGFSVSTGTLTDPVTGKPITLTVTNLPDGVSRVTVTLEDGKTFEFTFPANNPPTPEQVAEAVKAFSAGG [r13_492_TrMRF]
[1]
  folding stability dG unfold: 3.631 ± 0.024 kcal/mol
[2]
  folding stability dG unfold: 3.64 ± 0.04 kcal/mol
[3]
  folding stability dG unfold: 3.64 ± 0.078 kcal/mol

## SAGGGGSMTIVVPVEVSPETSEEEVRKRAEEIARPIAEELGKKVSIEVSREEDPEGGRRWTATITILSAGGS [r16_279_JUSTAS]
[1]
  folding stability dG unfold: 2.6 ± 0.017 kcal/mol
[2]
  folding stability dG unfold: 2.71 ± 0.046 kcal/mol
[3]
  folding stability dG unfold: 2.88 ± 0.056 kcal/mol

## SAGGGGSTPVSSYSYPLPDGSTATITISSKNPDSDIYSFTVTLSDGTTVPLDVPLSESVEEAIARVLTSAGG [r13_470_JUSTAS]
[1]
  folding stability dG unfold: 2.19 ± 0.076 kcal/mol
[2]
  folding stability dG unfold: 2.27 ± 0.092 kcal/mol
[3]
  folding stability dG unfold: 2.31 ± 0.086 kcal/mol

## SAGGGHMVNVTLTGSSIEEIKKELEELAKKYGFVINPKKVEKLPGPKYKITLNIKAPDEVVELIKKKSAGGS [r8_357_JUSTAS]
[1]
  folding stability dG unfold: 2.16 ± 0.053 kcal/mol
[2]
  folding stability dG unfold: 1.72 ± 0.13 kcal/mol
[3]
  folding stability dG unfold: 0.943 ± 0.044 kcal/mol

## SAGGGIAEILEIREFEDGVEILILTDDLDDPEIIEELIDEIAEELGLPKEKIRAHIIPADIPPLPDEESAGG [r13_430_TrMRF]
[1]
  folding stability dG unfold: 1.18 ± 0.1 kcal/mol
[2]
  folding stability dG unfold: 1.04 ± 0.24 kcal/mol
[3]
  folding stability dG unfold: 1.22 ± 0.061 kcal/mol

## SAGGGIEREVAPDEVVEIPIVRIEGDVAREETIEIRLPAGARIEPSGDKIRLWFPEEGKVLEIPLTELSAGG [r13_275_TrMRF]
[1]
  folding stability dG unfold: -0.079 ± 0.059 kcal/mol
[2]
  folding stability dG unfold: -0.0226 ± 0.096 kcal/mol
[3]
  folding stability dG unfold: -0.0241 ± 0.065 kcal/mol

## SAGGGITITLPDGSVIEIEPVSTFTNEDGQPVTKIKATLTDPVTGTSVEADIYLFPDGGVKIDLKPGSAGGS [r16_651_TrMRF]
[1]
  folding stability dG unfold: 2.35 ± 0.031 kcal/mol
[2]
  folding stability dG unfold: 2.35 ± 0.062 kcal/mol
[3]
  folding stability dG unfold: 2.3 ± 0.051 kcal/mol

## SAGGGKKYRVTLELTLPDGTKLTLEFEFEVVPPAVPKPVVTTSLDDIAEFDPETGTAIDKKNKKPIPLPSAG [r5_807_TrMRF]
[1]
  folding stability dG unfold: 3.1 ± 0.065 kcal/mol
[2]
  folding stability dG unfold: 2.66 ± 0.19 kcal/mol
[3]
  folding stability dG unfold: 1.5 ± 0.12 kcal/mol

## SAGGGKTVVLVTHPDGTPTTITFDPEKPVATITYPDGTTETLPVPPDKTIADLAKALPADYTAVFAPASAGG [r13_696_TrMRF]
[1]
  folding stability dG unfold: 0.696 ± 0.069 kcal/mol
[2]
  folding stability dG unfold: 0.419 ± 0.13 kcal/mol
[3]
  folding stability dG unfold: -0.338 ± 0.13 kcal/mol

## SAGGGLLEELARELGFEAEIEEIPETGILRITLRPEDGSEVEITVKVTRIPGLGEVKLEVLEVKVRPTSAGG [r13_936_TrMRF]
[1]
  folding stability dG unfold: 3.31 ± 0.052 kcal/mol
[2]
  folding stability dG unfold: 3.33 ± 0.2 kcal/mol
[3]
  folding stability dG unfold: 3.15 ± 0.16 kcal/mol
